{"source": "the DeepSol protein solubility set"}
{"assay": "soluble on expression in E. coli; label from the status in PepcDB or PDB records"}
{"sequence": "METKKQSESETYVERMVLPEDMDIYEYLYGGRLMEWIDNCASIVATKHCRKRTVTGSIDSLFFLLPIHLGDMVILHGYINYTTKSTMEIEIDVIKEEGLTGIRRYATKAYLTYVAIDSDGRPTEIPQIVPETDEEKRRYQDAEKRAEERRKRLESIKQQLASMVP", "soluble on expression in E. coli": "not soluble"}
{"sequence": "GDLLVVTLENITEAKQGEISLNAALHAAEKQERLYNSITNNTPDLVYVFGLDYSFTYANKALLTMWGKTAEEAIGKGLRENGYEEWHAQMHEREIDEIKATKKSIRGTVSFPHAELGSRMYDYILVPVLNESGEVEAIAGTTRD", "soluble on expression in E. coli": "not soluble"}
{"sequence": "MPTVQTIYSLEKAPEATKDKEPLVVYATSVDWKWVFSYPEQDIETVNYLNIPVDRPILCKISSADSMASLWIPQLGGQKYAMAGMLMDQYLQADKVGTYEGRNANFTGEHFADQEFDVNAVTEKDFNSWVKKTQNEAPKLTKEKYDELMLPENVDELTFSSTHLKYVDHGQDAEYAMEARKRLGYQAVSPHCKTDPFENVKKNEFKKSDDTEE", "soluble on expression in E. coli": "not soluble"}
{"sequence": "MGHHHHHHSHNSSSCPEIQGFLHVKELGKKSWKKLYVCLRRSGLYCSTKGTSKEPRHLQLLADLEDSNIFSLIAGRKQYNAPTDHGLCIKPNKVRNETKELRLLCAEDEQTRTCWMTAFRLLKYGMLLYQNYRIPQQRKALLSPFSTPVRSVSENSLVAMDFSGQTGRVIENPAEAQSAALEEGHAWRKRSTRMNILGSQSPLHPSTLSTVIHRTQ", "soluble on expression in E. coli": "not soluble"}
{"sequence": "MGSDKIHHHHHHMMLTTKLIYCCLVSIVLHPINNLNPKPYISLFNLQGILLPTQFSHSLTSLDAFAPRLLAWFEINGRHDLPWQQHQTDTPNPYIVWLSEVMLQQTQVTTVLPYFARFMASFPTVQDLAAAEWDTVAEHWAGLGYYARARNLHKGAKQLVEVIDETGEYPTTLAGWEAISGVGPSTAGAIMAMGLHRYGVICDGNVKRVLTRWAAIDGDITKSATTKELWALAERLTPKENSGLFAQAMMDMGATLCTRSKPACLLCPLQDDCLAHAQGRETDYPVKAKKQPKPSKFSNALLIENENGEILWLQRPDNGIWGGLWSLPLAFIEKISGKVAVKDADKNKNKELIAANDNQLLEVASNEKVYETEFTTAEQIINEWINKNELVAKSVNDTLLDDSPIKHSLTHFHWYLTPQTVNLNTKQAQEITEALQAGEININWLNADDAQATLGLPKAMVKILE", "soluble on expression in E. coli": "not soluble"}
{"sequence": "MLKSILRGALVATKPGPARRQFSFTALLRSETQPKEIINLERVQVRKMKKRRPVASSVVPKSLREPSVVAMALSESLNLNEVIMDAQLNGMYNITAIDEDADDSLHFVKKLEYTINPGELSEIFVFRDGVVVFWNVDSSQRSHILRELERYADAPYDSMIVMDEQDRMFYKFSEQSTGSTIRQDRFYLSGKHLDAFHGSNEAILERFALSQGFAASVKIGVWESLLNNLAEPLSNTTKSLTLGKIPWSRKQALMRSGEFAALRHSINLDCTLLNKDFYWERPELEKYYTMTGRHFSLDRRIGLLNKRLDYCEELVKMVDNTIALRHASHLEWMIIVLIVIEVIFDVFHFADKTPKSVMIVPDSSKAQQLRNEGN", "soluble on expression in E. coli": "not soluble"}
{"sequence": "EVVVIGYGTAKRKDITGSVATVNAEALTVVPVASATEALTGKMAGVQITTTEGSPDAEMKIRVRGGGSITGDNTPLFIVDGFPVESISDIPASDIEDMTVLKDASSTAIYGSRGANGVILVTTKSGK", "soluble on expression in E. coli": "not soluble"}
{"sequence": "MGSDKIHHHHHHLISTANITMQFGPEPLFENISAQFGHGNRYGLIGANGCGKSTFMKILSGALAPTSGNVSITPGLKVGNLSQDQFAFEQHSVIDTVIMGDMKLWKVKQEREAIYAKPDMTDEDGMRVGDLESEFAEMDGYSAESRAGEILIEAGIDESMHFGLMQQVPPGKKLRVLLAQALFANPDILLLDEPTNNLDIHTISWLETELNKRKCTMIIISHDRHFLNAVCTHMADIDYGELRIYPGNYEFFLAQSSLIREQLLAGNAKKSAEIDELQDFVNRFGANASKAKQASSRAKKMDKIKLDDVKSSSRITPSIRFEAGKKMHRQALILEGLGHGFDEGMLFTGGDLILEAGAKLAIIGENGVGKTTLLRCLVNELSHKEGVVKWSENAAVGYCPQDSSADFDNDLTLMDWMSQWRLPKHNDLMVRGMLGRLLFTEDDANKKARNCSGGEKNRLLFGKLMMQDVNVLIMDEPTNHMDMEAIEALNNALKDFEGTLIFVSHDREFVSSLATRVIDIKDKKLINFQGSFDEYLASQSEAQKIA", "soluble on expression in E. coli": "not soluble"}
{"sequence": "MTVGMSGFTRAGEAKAVPLALAERAKTNPMKITLMTGASLGNDLDKTMVEAGMLARRMPFQSDPALRKAINDGRVMFIDQHLSETVEQLRGGQIHGVDIAIVEAVAITAEGGIVPTTSVGNSASFAILADKVIVEINLSQPEVLEGLHDIFIPAKRPTRMPIPVVATDSRVGLPFIPVPPEKIAAIVLSDKSDSFSTVLPPDDETKAIAGHLTEFLLNEVRHGRMTHELQPLQAGIGTIANAVMHGFIDTPFHDLKMYSEVLQDSTFELFDAGKLTFASGSSITLSSAMNEQVMPRLSEYKSRLILRPQEVSNHPEVIRRLGIIGINTALEFDIYGNVNSTHVGGTHMMNGIGGSGDFARNAYMSIFVTKSIAKGGAISSVVPMVSHVDHTEHDVDILVTETGLADLRGLAPRERAAVIIANCVHPSYRDALTDYYQRAAARGGHTPHLIEEALSWHNALRERGTMLPQRLEHHHHHH", "soluble on expression in E. coli": "not soluble"}
{"sequence": "MDEEERTSSRGWMREFKYPSNLRDITEEARISLSSVAHFDELLHESSELAWRTNMSPPHRALFTFSKKTDISYVMLFLDYSRDESYCPQEVRIDLGDGTNDWWLKMYRRVDQPKGWVKIPIHDAFGNPLRVMSLQMTIMKNHEKGRDCVVRHFRVLGPFRSRYDSMNRMILGPSAVLEARPGTEPIKDAIMNHYQSMR", "soluble on expression in E. coli": "not soluble"}
{"sequence": "MSVVIERIPKEAIPKSLLLLADPSERQIATYVQRGLTYVAKQGGSVIGVYVLLETRPKTMEIMNIAVAEHLQGKGIGKKLLRHAVETAKGYGMSKLEVGTGNSSVSQLALYQKCGFRIFSIDFDYFSKHYEEEIIENGIVCRDMIRLAMELNKNV", "soluble on expression in E. coli": "soluble"}
{"sequence": "GEFPLQTKTDIHAVLASNGRIIYISANSKLHLGYLQGEMIGSFLKTFLHEEDQFLVESYFYNEHHLMPCTFRFIKKDHTIVWVEAAVEIVTTRAERTEREIILKMKVLEEE", "soluble on expression in E. coli": "soluble"}
{"sequence": "PPAVSDIRVTRSSPSSLSLAWAVPRAPSGAVLDYEVKYHEKGAEGPSSVRFLKTSENRAELRGLKRGASYLVQVRARSEAGYGPFGQEHHSQTQLD", "soluble on expression in E. coli": "soluble"}
{"sequence": "SDRFVWTSGLLEINETLVIQQRGVRIYDGEEKIKFDAGTLLLSTHRLIWRDQKNHECCMAILLSQIVFIEEQAAGIGKSAKIVVHLHPAPPNKEPGPFQSSKNSYIKLSFKEHGQIEFYRRLSEEMTQRRWENMPVSQSLQTNRGPQPGRIRAVGIVGIERKLEEKRKETDKNISEAFEDLSKLMIKAKEMVELSKSIANKIKDKQGDITEDETIRFKSYLLSMGIANPVTRETYGSGTQYHMQLAKQLAGILQVPLEERGGIMSLTEVYCLVNRARGMELLSPEDLVNACKMLEALKLPLRLRVFDSGVMVIELQSHKEEEMVASALETVSEKGSLTSEEFAKLVGMSVLLAKERLLLAEKMGHLCRDDSVEGLRFYPNLFMTQS", "soluble on expression in E. coli": "soluble"}
{"sequence": "AHHHHHHGSIHIIEEYFRPYPARKKVAQILWEAGMSVKDGKIYVKGVEVPISGIAQVAGVNRKIVYHTIEYIESKPALKLLFENLSPRTSLISIAPLMGWEVLELTIQKGKYEKTLAKVLESLAERRVRVIEIFGSNPYEEKSKAFLVVEGIVPFEVISSLREEGSLERIVIHTPEKEKERMICPKCEIKYCPRKIFISTR", "soluble on expression in E. coli": "soluble"}
{"sequence": "MRERRYSSTSPERLAAALFDVAAESGLEGASVREVAKRAGVSIGAVQHHFSTKDEMFAFALRTLVDKLLARLSEVERGGDPARALFAAMSQLLPLDEARSREAHVMAAFAVRAATSPSLAEIRRKTLFTIRTGLSAVLIGIGTPEAETRAALLLATVDGLALDAIGSPALYPPEYLEHALDIQIGMILQGADVVPSSSIELAS", "soluble on expression in E. coli": "soluble"}
{"sequence": "MGDTFIRHIALLGFEKRFVPSQHYVYMFLVKWQDLSEKVVYRRFTEIYEFHKTLKEMFPIEAGAINPENRIIPHLPAPKWFDGQRAAENRQGTLTEYCSTLMSLPTKISRCPHLLDFFKVRPDDLKLPTDNQTKKPETYLM", "soluble on expression in E. coli": "soluble"}
{"sequence": "MIMDLASLRAQQIELASSVIREDRLDKDPPDLIAGADVGFEQGGEVTRAAMVLLKYPSLELVEYKVARIATTMPYIPGFLSFREYPALLAAWEMLSQKPDLVFVDGHGISHPRRLGVASHFGLLVDVPTIGVAKKRLCGKFEPLSSEPGALAPLMDKGEQLAWVWRSKARCNPLFIATGHRVSVDSALAWVQRCMKGYRLPEPTRWADAVASERPAFVRYTANQPLEHHHHHH", "soluble on expression in E. coli": "soluble"}
{"sequence": "MILQELPDLEELFLCLNDYETVSCPSICCHSLKLLHITDNNLQDWTEIRKLGVMFPSLDTLVLANNHLNAIEEPDDSLARLFPNLRSISLHKSGLQSWEDIDKLNSFPKLEEVRLLGIPLLQPYTTEERRKLVIARLPSVSKLNGSVVTDGEREDSERFFIRYYVDVPQEEVPFRYHELITKYGKLEPLAEVDLRPQSSAKVEVHFNDQVEEMSIRLDQTVAELKKQLKTLVQLPTSNMLLYYFDHEAPFGPEEMKYSSRALHSFGIRDGDKIYVESKTK", "soluble on expression in E. coli": "soluble"}
{"sequence": "MSLTPQQVFVKCHFDYNPYNDNLIPCKEAGLKFSKGEILQIVNREDPNWWQASHVKEGGSAGLIPSQFLEEKRKAFVRRDWDNSGPFCGTISSKKKKKMMYLTTRNAEFDRHEIQIYEEVAKMPPFQRKTLVLIGAQGVGRRSLKNRFIVLNPTRFGTTVPFTSRKPREDEKDGQAYKFVSRSEMEADIKAGKYLEHGEYEGNLYGTKIDSILEVVQTGRTCILDVNPQALKVLRTSEFMPYVVFIAAPELETLRAMHKAVVDAGITTKLLTDSDLKKTVDESARIQRAYNHYFDLIIINDNLDKAFEKLQTAIEKLRMEPQWVPISWVYEGHHHHHH", "soluble on expression in E. coli": "soluble"}
{"sequence": "MTRYLDISLGIVRDYYEAAPVKVVFVKDHPRLPTPGGIINARRGDEVELPRWQARMLREKGYVEYKEKIVDIDYVNLVHYHEVKKSAANSLLGVPSDFYLRVKELVEDLDRRIRENPGYMLFQDRENVERAIMQISERRLVKMMRLVLSGGGEEVRERLTVEENLVYSMAEEVVKGWKEYVKSLVGRR", "soluble on expression in E. coli": "not soluble"}
{"sequence": "MSLDDHTRDPTVKAPDGNPSGWRTDGQWEHETLRRAVVHGVRLYNSGEFHESHDCFEDEWYNYGRGNTESKFLHGMVQVAAGAYKHFDFEDDDGMRSLFRTSLQYFRGVPNDYYGVDLLDVRTTVTNALSDPSALHGWQIRLDGEYPTCRPEDIEFAESLEHEGHHHHHH", "soluble on expression in E. coli": "soluble"}
{"sequence": "MGSDKIHHHHHHMNVFPADRIEAMHDAGLDILERLGIKVLLPEARAIFATAGAMVKDDMVYIGRDIVEASLASAPRRIEGRAGAPERDVVLELGSLVFQPGAGAPHATDEVRGRRPGCARDFKELIQLTNHFDVFHMLPPLVEPQDIATNIRHYFTLECQLTESNKFPFIFSRGTPQVTESFEMLRDFRGLSDAEFEAEPRCYTIINTNSPRTLDVPMAQGLIDFARMGQISIVTPFTLMGAMAPITVAGAITLSHAEALAAITLTQLTNPGAPVCYGTFTSNVDMKSGAPAFGTPSHFQASLAAGQLARHIGLPWRSAAGSAANLNDVQAANENQFGLWGCLMAGATVVIHSAGWLEGGLSISYEKLITDAEVLNMVAELCAGAQASDAEIGLDAIEDTAPSGHFFATAQTMARYQTEFYEPIIHDYANFGTWTERGSKDASTRARDVWQGILADPKSPTVNGDRLSALQDDIARRTQAGGAYPES", "soluble on expression in E. coli": "not soluble"}
{"sequence": "MNMKNELHVISNGHMPFEELVNVAMQIESEIDYLHIREREKSTKELYEGVESLLMEGFPASKIVINDRIDIAILLNIPRVQLGYRSTDVKSVKEKFSYLHVGYSVHSLDEAIVAFKNGADSLVYGHVFPTDCKKGVPARGLEEISDIARCLSIPITAIGGITPENTVDVLTNGVSGIAVMSGIVSSSNPYSKAKSYKESIRKWAEKHV", "soluble on expression in E. coli": "not soluble"}
